# B1: hNav1.7^GFP (natural protein)
# chain: not shown
# notes: numbers count on: isoform 3; pCMV6-neo-hNav1.7, Klugbauer et al. 1995; also called hNav1.7/WT; source: X. laevis oocytes, cRNA injected, in detergent extract (cleared supernatant); not shown: GFP, C-terminal, kept
# B2: hTRPV1^GFP (natural protein, human, UniProt Q8NER1-1 1-839, looked up)
# chain: MKKWSSTDLGAAADPLQKDTCPDPLDGDPNSRPPPAKPQLSTAKSRTRLFGKGDSEEAFPVDCPHEEGELDSCPTITVSPVITIQRPGDGPTGARLLSQDSVAASTEKTLRLYDRRSIFEAVAQNNCQDLESLLLFLQKSKKHLTDNEFKDPETGKTCLLKAMLNLHDGQNTTIPLLLEIARQTDSLKELVNASYTDSYYKGQTALHIAIERRNMALVTLLVENGADVQAAAHGDFFKKTKGRPGFYFGELPLSLAACTNQLGIVKFLLQNSWQTADISARDSVGNTVLHALVEVADNTADNTKFVTSMYNEILMLGAKLHPTLKLEELTNKKGMTPLALAAGTGKIGVLAYILQREIQEPECRHLSRKFTEWAYGPVHSSLYDLSCIDTCEKNSVLEVIAYSSSETPNRHDMLLVEPLNRLLQDKWDRFVKRIFYFNFLVYCLYMIIFTMAAYYRPVDGLPPFKMEKTGDYFRVTGEILSVLGGVYFFFRGIQYFLQRRPSMKTLFVDSYSEMLFFLQSLFMLATVVLYFSHLKEYVASMVFSLALGWTNMLYYTRGFQQMGIYAVMIEKMILRDLCRFMFVYIVFLFGFSTAVVTLIEDGKNDSLPSESTSHRWRGPACRPPDSSYNSLYSTCLELFKFTIGMGDLEFTENYDFKAVFIILLLAYVILTYILLLNMLIALMGETVNKIAQESKNIWKLQRAITILDTEKSFLKCMRKAFRSGKLLQVGYTPDGKDDYRWCFRVDEVNWTTWNTNVGIINEDPGNCEGVKRTLSFSLRSSRVSGRHWKNFALVPLLREASARDRQSAQPEEVYLRQFSGSLKPEDAEVFKSPAASGEK
# notes: human TRPV1, transcript variant 3, subcloned from pDONR201 into pNKS2; Used as mass marker on the native gel; calculated mass of the GFP-tagged protomer printed as 123 kDa; also called human TRPV1 (transient receptor potential cation channel subfamily V member 1); source: X. laevis oocytes, cRNA injected, in digitonin extract (cleared supernatant); not shown: GFP, C-terminal, kept
# Molecular target: the molecule itself
# Experiment: native gel or EMSA; hrCN-PAGE of digitonin extracts of cRNA-injected X. laevis oocytes (0.1 M sodium phosphate pH 8.0, 1 mM TCEP), non-denaturing conditions; GFP tags visualised by fluorescence scanning; masses judged against hTrpV1-GFP
row,Protein,stoichiometry N
1,B1,2
2,B2,4

# Source: publication PMC7484505, “Uncoupling sodium channel dimers restores the phenotype of a pain‐linked Nav1.7 channel mutation” (British Journal of Pharmacology, 2020)
